Experimental data taken from paper PMC4597109 (Structure(London, England:1993), 2015).

Molecular target: the molecule itself
Experiment: cryo-EM structure

B1: Barley stripe mosaic virus coat protein, in wild-type virions (wtBSMV) (natural protein)
chain: MPNVSLTAKGGGHYIEDQWDTQVVEAGVFDDWWVHVEAWNKFLDNLRGINFSVASSRSQVAEYLAALDRDLPADVDRRFAGARGQIGSPNYLPAPKFFRLDKRTIAELTRLSRLTDQPHNNRDIELNRAKRATTNPSPPAQAPSENLTLRDVQPLKDSALHYQYVLIDLQSARLPVYTRKTFERELALEWIIPDAEEA
binding result: binds
